Experimental data taken from patent US20200405813A1 (SUTRO BIOPHARMA, published 2020).

B1: Conjugate 49: anti-MUC16 sofituzumab+ Compd 401/Compd 101 (sofituzumab HC:4x pAMF iADC, 70% TLR agonist, DAR 3.9) (antibody, human IgG1, kappa, V domains shown)
VH: EVQLVESGGGLVQPGGSLRLSCAASGYSITNDYAWNWVRQAPGKGLEWVGYISYSGYTTYNPSLKSRFTISRDTSKNTLYLQMNSLRAEDTAVYYCARWTSGLDYWGQGTLVTVSS
VL: DIQMTQSPSSLSASVGDRVTITCKASDLIHNWLAWYQQKPGKAPKLLIYGATSLETGVPSRFSGSGSGTDFTLTISSLQPEDFATYYCQQYWTTPFTFGQGTKVEIKR
modifications: pAMF at Y180 and F404 conjugated to a mixture of Compound 401 and Compound 101
B2: Conjugate 1: anti-FolR1-Compd 101 ADC (FolRα antibody 1848-B10 ADC, DAR 4) (antibody, human IgG1, kappa, V domains shown)
VH: EVQLVESGGGLVQPGGSLRLSCAASGFNTTTKSIHWVRQAPGKGLEWVGEIYPRDGITDYADSVKGRFTISADTSKNTAYLQMNSLRAEDTAVYYCARGGWHWRSGYSYYLDYWGQGTLVTVSS
VL: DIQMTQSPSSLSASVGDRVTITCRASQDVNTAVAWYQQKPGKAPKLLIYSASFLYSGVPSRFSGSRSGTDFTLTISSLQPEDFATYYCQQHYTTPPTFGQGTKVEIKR
modifications: pAMF (para-azidomethyl-L-phenylalanine) at Y180 and F404 conjugated to Compound 101 (by Table 16; Tables 8 and 10 say Y180 and K42 sites)

Key:
[1] = target: Muc16 on Muc16-positive OVCAR3 cells (UniProt Q8WXI7 1-14507, limits assumed); assay: cell-based or functional assay
[2] = target: FolR1 (folate receptor alpha) on FolR1-positive KB or Igrov1 cells (UniProt P15328 25-234, limits assumed); assay: cell-based or functional assay
FolR1 (folate receptor alpha) on FolR1-positive KB or Igrov1 cells, sequence (P15328 25-234 limits assumed): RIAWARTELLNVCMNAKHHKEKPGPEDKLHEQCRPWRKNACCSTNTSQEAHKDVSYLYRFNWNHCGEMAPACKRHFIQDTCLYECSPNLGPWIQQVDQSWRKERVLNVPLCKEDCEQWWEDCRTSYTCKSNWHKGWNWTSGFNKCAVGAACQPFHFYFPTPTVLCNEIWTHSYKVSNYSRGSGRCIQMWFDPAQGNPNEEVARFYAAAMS

Binder | Cell Killing on OVCAR3 (Muc16+), EC50 [1] | Cell Killing on FolR1+ Igrov1 Cells, EC50 [2]
B1 | 0.1 | –
B2 | – | 0.03 nM
